Measurements from patent publication US20220308072A1.

Columns and labels:
[1] = target: Recombinant, his tagged full length human frataxin protein (Abcam ab95502) (human) (UniProt Q16595); assay: Simoa sandwich 3-step; capture Ab-4
[2] = target: Recombinant, his tagged full length human frataxin protein (Abcam ab95502) (human) (UniProt Q16595); assay: Simoa sandwich 3-step; capture Ab-2
[3] = target: Recombinant, his tagged full length human frataxin protein (Abcam ab95502) (human) (UniProt Q16595); assay: Simoa sandwich 2-step; capture Ab-1; 150 pM SβG
[4] = target: Recombinant, his tagged full length human frataxin protein (Abcam ab95502) (human) (UniProt Q16595); assay: Simoa sandwich 3-step; capture Ab-2; frataxin 100 pg/mL
[5] = target: Recombinant, his tagged full length human frataxin protein (Abcam ab95502) (human) (UniProt Q16595); assay: Simoa sandwich 3-step; capture Ab-4; frataxin 100 pg/mL
[6] = target: Recombinant, his tagged full length human frataxin protein (Abcam ab95502) (human) (UniProt Q16595); assay: Simoa sandwich 3-step; capture Ab-2; frataxin 100 pg/mL; remark: listed apart in the source
[7] = target: Recombinant, his tagged full length human frataxin protein (Abcam ab95502) (human) (UniProt Q16595); assay: Simoa sandwich 2-step; capture Ab-2; frataxin 500 pg/mL
[8] = target: Recombinant, his tagged full length human frataxin protein (Abcam ab95502) (human) (UniProt Q16595); assay: Simoa sandwich 3-step; capture Ab-1; frataxin 1000 pg/mL
[9] = target: Recombinant, his tagged full length human frataxin protein (Abcam ab95502) (human) (UniProt Q16595); assay: Simoa sandwich 3-step; capture Ab-4; frataxin 1000 pg/mL
[10] = target: Recombinant, his tagged full length human frataxin protein (Abcam ab95502) (human) (UniProt Q16595); assay: Simoa sandwich 2-step; capture Ab-1; frataxin 18.5 pg/mL
[11] = target: Recombinant, his tagged full length human frataxin protein (Abcam ab95502) (human) (UniProt Q16595); assay: Simoa sandwich 2-step; capture Ab-2; frataxin 6.17 pg/mL
[12] = target: Recombinant, his tagged full length human frataxin protein (Abcam ab95502) (human) (UniProt Q16595); assay: Simoa sandwich 3-step; capture Ab-3; frataxin 10000 pg/mL
[13] = target: Recombinant, his tagged full length human frataxin protein (Abcam ab95502) (human) (UniProt Q16595); assay: Simoa sandwich 2-step; capture Ab-2; frataxin 0.686 pg/mL
[14] = target: Recombinant, his tagged full length human frataxin protein (Abcam ab95502) (human) (UniProt Q16595); assay: Simoa sandwich; capture Ab-1; no helper beads; frataxin 167 pg/mL
[15] = target: Recombinant, his tagged full length human frataxin protein (Abcam ab95502) (human) (UniProt Q16595); assay: Simoa sandwich; capture Ab-1; no helper beads; frataxin 2.06 pg/mL
[16] = target: Recombinant, his tagged full length human frataxin protein (Abcam ab95502) (human) (UniProt Q16595); assay: Simoa sandwich 2-step; capture Ab-1; 150 pM SβG; frataxin 500 pg/mL
[17] = target: Recombinant, his tagged full length human frataxin protein (Abcam ab95502) (human) (UniProt Q16595); assay: Simoa sandwich 2-step (120 min-5 min); capture Ab-1; frataxin 222 pg/mL
[18] = target: Recombinant, his tagged full length human frataxin protein (Abcam ab95502) (human) (UniProt Q16595); assay: Simoa sandwich 2-step (120 min-5 min); capture Ab-1; Diluent 1 + 10% NCS
[19] = target: Recombinant, his tagged full length human frataxin protein (Abcam ab95502) (human) (UniProt Q16595); assay: Simoa sandwich 2-step (120 min-5 min); capture Ab-1; frataxin 74.1 pg/mL
[20] = target: Recombinant, his tagged full length human frataxin protein (Abcam ab95502) (human) (UniProt Q16595); assay: Simoa sandwich 2-step (35 min-5 min); capture Ab-1; with helper beads; frataxin 55.6 pg/mL
[21] = target: Recombinant, his tagged full length human frataxin protein (Abcam ab95502) (human) (UniProt Q16595); assay: Simoa sandwich 2-step (35 min-5 min); capture Ab-1; with helper beads; frataxin 0.686 pg/mL
[22] = target: Recombinant, his tagged full length human frataxin protein (Abcam ab95502) (human) (UniProt Q16595); assay: Simoa sandwich 2-step (120 min-5 min); capture Ab-1; Diluent 1 + 5% NCS; frataxin 66.7 pg/mL
[23] = target: Recombinant, his tagged full length human frataxin protein (Abcam ab95502) (human) (UniProt Q16595); assay: Simoa sandwich 2-step (120 min-5 min); capture Ab-1; Diluent 1 + 5% NCS; frataxin 7.41 pg/mL
[24] = target: Recombinant, his tagged full length human frataxin protein (Abcam ab95502) (human) (UniProt Q16595); assay: Simoa sandwich 2-step (120 min-5 min); capture Ab-1; Diluent 1 + 5% NCS; frataxin 1000 pg/mL
[25] = target: Recombinant, his tagged full length human frataxin protein (Abcam ab95502) (human) (UniProt Q16595); assay: Simoa sandwich 2-step (120 min-5 min); capture Ab-1; Diluent 1 + 10% NCS; frataxin 1000 pg/mL

Sequence of UniProt Q16595 (Q16595 42-210): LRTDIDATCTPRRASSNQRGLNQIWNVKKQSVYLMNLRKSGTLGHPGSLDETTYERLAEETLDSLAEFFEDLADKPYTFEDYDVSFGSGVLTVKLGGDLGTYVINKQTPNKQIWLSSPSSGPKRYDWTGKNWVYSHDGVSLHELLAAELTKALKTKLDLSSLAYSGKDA

Ab-3, mouse monoclonal [18A5DB1] to Frataxin (Abcam ab110328) (antibody)
LOD [1]: 1.09 pg/mL
LOD [2]: 0.65 pg/mL
LOD [3]: 0.272 pg/mL
Ave AEB [4]: 2.03 AEB
S/B [4]: 45.8
Ave AEB [5]: 2.79 AEB
S/B [5]: 23.8
Ave AEB [6]: 2.44 AEB
S/B [6]: 38.9
Ave AEB [7]: 25.1 AEB
S/B [7]: 263
Ave AEB [8]: 17.4 AEB
S/B [8]: 352
Ave AEB [9]: 25.2 AEB
S/B [9]: 215
Ave AEB [10]: 1.98 AEB
S/B [10]: 19.1
Ave AEB [11]: 0.737 AEB
S/B [11]: 7.72
Ave AEB [12]: 1.06 AEB
S/B [12]: 224
Ave AEB [13]: 0.165 AEB
S/B [13]: 1.73
AEB Rep1 [14]: 2.42 AEB
AEB Rep2 [14]: 2.1 AEB
Ave AEB [14]: 2.26 AEB
S/B [14]: 100
AEB Rep1 [15]: 0.0405 AEB
AEB Rep2 [15]: 0.043 AEB
Ave AEB [15]: 0.0418 AEB
S/B [15]: 1.85
Ave AEB [16]: 23.7 AEB
S/B [16]: 527
AEB rep1 [17]: 1.01 AEB
AEB rep2 [17]: 1.08 AEB
AEB rep3 [17]: 1.04 AEB
Ave AEB [17]: 1.04 AEB
S/B [17]: 127
LOD [18]: 0.323 pg/mL
AEB rep1 [19]: 0.357 AEB
AEB rep2 [19]: 0.356 AEB
AEB rep3 [19]: 0.336 AEB
Ave AEB [19]: 0.35 AEB
S/B [19]: 42.4
AEB Rep1 [20]: 3.47 AEB
AEB Rep2 [20]: 3.28 AEB
Ave AEB [20]: 3.38 AEB
S/B [20]: 139
AEB Rep1 [21]: 0.0586 AEB
AEB Rep2 [21]: 0.0638 AEB
Ave AEB [21]: 0.0612 AEB
S/B [21]: 2.51
Ave AEB [22]: 1.27 AEB
S/B [22]: 70.5
Ave AEB [23]: 0.156 AEB
S/B [23]: 8.62
Ave AEB [24]: 8.95 AEB
S/B [24]: 815
Ave AEB [25]: 5.18 AEB
S/B [25]: 482
